This series addresses Brec1-Zif268 (aa278) Rmut (synthetic). In words: cell_activity; 100 ug/ml L-arabinose, E. coli. The settings on record: tags: G-to-R in right linker.

The results in this text go back to patent publication US20250145973, “CONDITIONED DNA MODIFYING ENZYME COMPRISING HETEROLOGOUS DNA BINDING DOMAIN” (Technische Universität Dresden Körperschaft des …, published 2025).

Sequence of Brec1-Zif268 (aa278) Rmut (synthetic) (chain, as listed by the source): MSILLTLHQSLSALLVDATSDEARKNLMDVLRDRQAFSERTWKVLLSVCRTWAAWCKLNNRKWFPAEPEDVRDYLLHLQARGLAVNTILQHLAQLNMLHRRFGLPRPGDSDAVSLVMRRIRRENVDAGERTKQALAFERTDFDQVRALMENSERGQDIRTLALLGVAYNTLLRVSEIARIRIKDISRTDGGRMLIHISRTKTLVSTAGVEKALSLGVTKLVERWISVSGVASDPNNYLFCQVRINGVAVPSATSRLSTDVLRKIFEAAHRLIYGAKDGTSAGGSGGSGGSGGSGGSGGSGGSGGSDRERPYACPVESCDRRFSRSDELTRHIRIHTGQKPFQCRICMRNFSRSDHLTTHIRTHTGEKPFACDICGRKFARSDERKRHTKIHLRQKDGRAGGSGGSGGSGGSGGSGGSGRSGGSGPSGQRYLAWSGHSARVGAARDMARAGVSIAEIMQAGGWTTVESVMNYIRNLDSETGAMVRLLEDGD

B1: loxBTR-5-zif (A) (dsDNA)
DNA 1: AGCGTGGGCGTACTGAACCCACTGCTTAAGCCTCAATAAAGCTTGCCTTCAGTACGCCCACGCT
DNA 2: AGCGTGGGCGTACTGAAGGCAAGCTTTATTGAGGCTTAAGCAGTGGGTTCAGTACGCCCACGCT
In the case of B1, the binding signal turned out to be 2.5 fold vs Brec1-Zif268.
